Target: the molecule itself
Assay: single-molecule fluorescence stoichiometry analysis

Protein | binding result | stoichiometry N
Atg9-GFP (purified, GFP-3xFLAG fusion) (natural protein, S. cerevisiae, UniProt Q12142 1-997, looked up) MERDEYQLPNSHGKNTFLSRIFGLQSDEVNPSLNSQEMSNFPLPDIERGSSLLHSTNDSREDVDENDLRVPESDQGTSTEEEDEVDEEQVQAYAPQISDGLDGDHQLNSVTSKENVLETEKSNLERLVEGSTDDSVPKVGQLSSEEEEDNEFINNDGFDDDTPLFQKSKIHEFSSKKSNTIEDGKRPLFFRHILQNNRPQRDTQKLFTSSNAIHHDKDKSANNGPRNINGNQKHGTKYFGSATQPRFTGSPLNNTNRFTKLFPLRKPNLLSNISVLNNTPEDRINTLSVKERALWKWANVENLDIFLQDVYNYYLGNGFYCIILEKILNICTLLFVVFVSTYMGHCVDYSKLPTSHRVSDIIIDKCYSNSITGFTKFFLWMFYFFVILKIVQLYFDVQKLSELQNFYKYLLNISDDELQTLPWQNVIQQLMYLKDQNAMTANVVEVKAKNRIDAHDVANRIMRRENYLIALYNSDILNLSLPIPLFRTNVLTKTLEWNINLCVMGFVFNESGFIKQSILKPSQREFTREELQKRFMLAGFLNIILAPFLVTYFVLLYFFRYFNEYKTSPGSIGARQYTPIAEWKFREYNELYHIFKKRISLSTTLANKYVDQFPKEKTNLFLKFVSFICGSFVAILAFLTVFDPENFLNFEITSDRSVIFYITILGAIWSVSRNTITQEYHVFDPEETLKELYEYTHYLPKEWEGRYHKEEIKLEFCKLYNLRIVILLRELTSLMITPFVLWFSLPSSAGRIVDFFRENSEYVDGLGYVCKYAMFNMKNIDGEDTHSMDEDSLTKKIAVNGSHTLNSKRRSKFTAEDHSDKDLANNKMLQSYVYFMDDYSNSENLTGKYQLPAKKGYPNNEGDSFLNNKYSWRKQFQPGQKPELFRIGKHALGPGHNISPAIYSTRNPGKNWDNNNNGDDIKNGTNNATAKNDDNNGNNDHEYVLTESFLDSGAFPNHDVIDHNKMLNSNYNGNGILNKGGVLGLVKEYYKKSDVGR | binds | 
Atg9^F627A-GFP (purified, GFP-3xFLAG fusion) (natural protein, S. cerevisiae, UniProt Q12142 1-997, looked up) MERDEYQLPNSHGKNTFLSRIFGLQSDEVNPSLNSQEMSNFPLPDIERGSSLLHSTNDSREDVDENDLRVPESDQGTSTEEEDEVDEEQVQAYAPQISDGLDGDHQLNSVTSKENVLETEKSNLERLVEGSTDDSVPKVGQLSSEEEEDNEFINNDGFDDDTPLFQKSKIHEFSSKKSNTIEDGKRPLFFRHILQNNRPQRDTQKLFTSSNAIHHDKDKSANNGPRNINGNQKHGTKYFGSATQPRFTGSPLNNTNRFTKLFPLRKPNLLSNISVLNNTPEDRINTLSVKERALWKWANVENLDIFLQDVYNYYLGNGFYCIILEKILNICTLLFVVFVSTYMGHCVDYSKLPTSHRVSDIIIDKCYSNSITGFTKFFLWMFYFFVILKIVQLYFDVQKLSELQNFYKYLLNISDDELQTLPWQNVIQQLMYLKDQNAMTANVVEVKAKNRIDAHDVANRIMRRENYLIALYNSDILNLSLPIPLFRTNVLTKTLEWNINLCVMGFVFNESGFIKQSILKPSQREFTREELQKRFMLAGFLNIILAPFLVTYFVLLYFFRYFNEYKTSPGSIGARQYTPIAEWKFREYNELYHIFKKRISLSTTLANKYVDQFPKEKTNLFLKFVSAICGSFVAILAFLTVFDPENFLNFEITSDRSVIFYITILGAIWSVSRNTITQEYHVFDPEETLKELYEYTHYLPKEWEGRYHKEEIKLEFCKLYNLRIVILLRELTSLMITPFVLWFSLPSSAGRIVDFFRENSEYVDGLGYVCKYAMFNMKNIDGEDTHSMDEDSLTKKIAVNGSHTLNSKRRSKFTAEDHSDKDLANNKMLQSYVYFMDDYSNSENLTGKYQLPAKKGYPNNEGDSFLNNKYSWRKQFQPGQKPELFRIGKHALGPGHNISPAIYSTRNPGKNWDNNNNGDDIKNGTNNATAKNDDNNGNNDHEYVLTESFLDSGAFPNHDVIDHNKMLNSNYNGNGILNKGGVLGLVKEYYKKSDVGR |  | 3

Reference: paper PMC10241002 (Autophagy, 2022)
